{"source": "paper PMC10716581", "about": "“Fanconi anemia-associated mutation in RAD51 compromises the coordinated action of DNA-binding and ATPase activities”", "target": "RAD51-Q242R (human, UniProt Q06609 1-339, Q242R)", "sequence (Q06609 whole entry Q242R)": "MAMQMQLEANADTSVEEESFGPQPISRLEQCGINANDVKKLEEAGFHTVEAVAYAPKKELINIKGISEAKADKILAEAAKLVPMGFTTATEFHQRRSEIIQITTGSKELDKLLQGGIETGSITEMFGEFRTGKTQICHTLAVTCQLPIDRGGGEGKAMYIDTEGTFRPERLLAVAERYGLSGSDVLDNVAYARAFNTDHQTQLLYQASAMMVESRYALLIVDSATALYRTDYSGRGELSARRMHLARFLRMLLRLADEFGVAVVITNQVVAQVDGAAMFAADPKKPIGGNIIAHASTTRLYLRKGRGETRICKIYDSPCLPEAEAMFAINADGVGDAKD", "assay": "EMSA; 2 mM ATP, 10 mM Mg2+; 20 mM Hepes-NaOH pH 7.5, 0.1 mg/ml BSA, 1 mM DTT, 10 mM MgCl2, 150 mM KCl, 2 mM ATP or AMP-PNP or no nucleotide, 2.7 uM (nt) DNA, 37 C 10 min; 8% native PAGE in 1x TBE", "conditions": "protein: recombinant; tags: N-terminal His-tag removed with thrombin; chain copies: 8; label: 5'-Cy5 on strand 1; blunt", "data": [{"binder": "Cy5-OL4/OL5 40-mer (dsDNA) DNA 1: TAATACAAAATAAGTAAATGAATAAACAGAGAAAATAAAG DNA 2: CTTTATTTTCTCTGTTTATTCATTTACTTATTTTGTATTA", "values": [{"measurement": "binding result", "result": "binds"}]}]}
